According to patent US8580556B2, “Sulfonylurea-responsive repressor proteins” (E. I. du Pont de Nemours and Company, priority 2008, dated 2013):
Like-named read-outs stand apart in the source and are kept apart here.

Test system: tetA promoter (PtetA)-lacZ reporter in E. coli KM3
Format: cell-based
Details: for relative β-galactosidase activity, inducer None / relative β-galactosidase activity, No inducer / relative β-galactosidase activity, inducer Blank: no inducer; for Inducer preference: Table 8, inducers given as numbers without key
[1] = Table 4, anhydrotetracycline 0.4 μM, 48 hrs at 30° C.
[2] = Table 4, chlorimuron 20 μg/ml (20 ppm), 48 hrs at 30° C.
[3] = Table 4, chlorsulfuron 20 μg/ml (20 ppm), 48 hrs at 30° C.
[4] = Table 4, ethametsulfuron 20 μg/ml (20 ppm), 48 hrs at 30° C.
[5] = Table 4, metsulfuron 20 μg/ml (20 ppm), 48 hrs at 30° C.
[6] = Table 4, nicosulfuron 20 μg/ml (20 ppm), 48 hrs at 30° C.
[7] = Table 4, rimsulfuron 20 μg/ml (20 ppm), 48 hrs at 30° C.
[8] = Table 4, thifensulfuron 20 μg/ml (20 ppm), 48 hrs at 30° C.
[9] = Table 4, tribenuron 20 μg/ml (20 ppm), 48 hrs at 30° C.
[10] = Table 10, chlorsulfuron 2 ppm, 48 hours at 30° C.
[11] = Table 10, ethametsulfuron 2 ppm, 48 hours at 30° C.
[12] = Table 10, metsulfuron 2 ppm, 48 hours at 30° C.
[13] = Table 10, sulfometuron 2 ppm, 48 hours at 30° C.
[14] = Table 4, sulfometuron 20 μg/ml (20 ppm), 48 hrs at 30° C.
[15] = Table 6, reverse repressor hits, anhydrotetracycline
[16] = Table 6, reverse repressor hits, chlorimuron, same plate assay format as Table 4
[17] = Table 6, reverse repressor hits, chlorsulfuron, same plate assay format as Table 4
[18] = Table 6, reverse repressor hits, ethametsulfuron, same plate assay format as Table 4
[19] = Table 6, reverse repressor hits, metsulfuron, same plate assay format as Table 4
[20] = Table 6, reverse repressor hits, nicosulfuron, same plate assay format as Table 4
[21] = Table 6, reverse repressor hits
[22] = Table 6, reverse repressor hits, rimsulfuron, same plate assay format as Table 4
[23] = Table 6, reverse repressor hits, sulfometuron, same plate assay format as Table 4
[24] = Table 6, reverse repressor hits, thifensulfuron, same plate assay format as Table 4
[25] = Table 6, reverse repressor hits, tribenuron, same plate assay format as Table 4

B1: L1-22: library L1 hit, sulfonylurea-responsive TetR(B) variant, SEQ ID NO: 7 (protein)
chain: MGSRLDKSKVINSALELLNEVGIEGLTTRKLAQKLGVEQPTLYWHVKNKRALLDALAIEMMDRHHTHFCPLEGESWQDFLRNTAKSYRCALLSHRDGAKVCLGTAITEKQYETKENNLAFLCQQGFSLENALYARQAVRVFTLGCVLFDQEMQVAKEERETPTTDSMPPLLRQASELLDHQGAEPAFLFGLELIICGLEKQLKSESGS
modifications: Sulfornylurea responsive repressor L1-22
relative β-galactosidase activity, inducer atc [1]: 0.0 | relative β-galactosidase activity, inducer Ci [2]: 10.4 | relative β-galactosidase activity, inducer Cs [3]: 0.2 | relative β-galactosidase activity, inducer Es [4]: 0.3 | relative β-galactosidase activity, inducer Ms [5]: 0.1 | relative β-galactosidase activity, inducer Ns [6]: 0.2 | relative β-galactosidase activity, inducer None (Table 4, 48 hrs at 30° C.): 0.1 | relative β-galactosidase activity, inducer Rs [7]: 0.1 | relative β-galactosidase activity, inducer Ts [8]: 0.0 | relative β-galactosidase activity, inducer Tb [9]: 0.3 | Inducer preference: 3 | relative β-galactosidase activity, inducer Cs [10]: 0.2 | relative β-galactosidase activity, inducer Es [11]: 0.2 | relative β-galactosidase activity, inducer Ms [12]: 0.2 | relative β-galactosidase activity, No inducer (Table 10, 48 hours at 30° C.): 0.2 | relative β-galactosidase activity, inducer Sm [13]: 1.8

B2: L1-7: library L1 hit, sulfonylurea-responsive TetR(B) variant, SEQ ID NO: 4 (protein)
chain: MGSRLDKSKVINSALELLNEVGIEGLTTRKLAQKLGVEQPTLYWHVKNKRALLDALAIEMLDRHNTHFCPLEGESWQDFLRNNAKSWRCALLSHRDGAKVVLGTAITEKQYETHENPLAFLCQQGFSLENALYAIAAVRRFTLGCVLVDQERQVAKEERETPTTDSMPPLLRQASELQDHQGAEPAFLFGLELIICGLEKQLKCERGS
modifications: Sulfonylurea responsive repressor L1-07
relative β-galactosidase activity, inducer atc [1]: 0.0 | relative β-galactosidase activity, inducer Ci [2]: 16.5 | relative β-galactosidase activity, inducer Cs [3]: 3.1 | relative β-galactosidase activity, inducer Es [4]: 0.1 | relative β-galactosidase activity, inducer Ms [5]: 0.2 | relative β-galactosidase activity, inducer Ns [6]: 0.1 | relative β-galactosidase activity, inducer None (Table 4, 48 hrs at 30° C.): 0.0 | relative β-galactosidase activity, inducer Rs [7]: 0.2 | relative β-galactosidase activity, inducer Sm [14]: 6.4 | relative β-galactosidase activity, inducer Ts [8]: 0.1 | relative β-galactosidase activity, inducer Tb [9]: 0.2

B3: L1-44: library L1 hit, sulfonylurea-responsive TetR(B) variant, SEQ ID NO: 13 (protein)
chain: MGSRLDKSKVINSALELLNEVGIEGLTTRKLAQKLGVEQPTLYWHVKNKRALLDALAIEMLDRHATHFCPLEGESWQDFLRNNAKSYRCALLSHRDGAKVYLGTAVTEKQYETAENQLAFLCQQGFSLENALYAVKAVAGFTLGCVLWDQESQVAKEERETPTTASMPPLLRQAVELADHQGAEPAFLFGLELIICGLEKQLKCESGS
modifications: Sulfonylurea responsive repressor L1-44
relative β-galactosidase activity, inducer atc [1]: 0.2 | relative β-galactosidase activity, inducer Ci [2]: 6.7 | relative β-galactosidase activity, inducer Ns [6]: 0.4 | relative β-galactosidase activity, inducer None (Table 4, 48 hrs at 30° C.): 0.2 | relative β-galactosidase activity, inducer Rs [7]: 0.3 | relative β-galactosidase activity, inducer Sm [14]: 0.4 | relative β-galactosidase activity, inducer Ts [8]: 1.9 | relative β-galactosidase activity, inducer Tb [9]: 0.4 | Inducer preference: 9 (weak) | relative β-galactosidase activity, inducer Cs [10]: 1.9 | relative β-galactosidase activity, inducer Es [11]: 1.0 | relative β-galactosidase activity, inducer Ms [12]: 0.5 | relative β-galactosidase activity, No inducer (Table 10, 48 hours at 30° C.): 0.6 | relative β-galactosidase activity, inducer Sm [13]: 0.6

B4: L1-39: library L1 reverse repressor hit (SEQ ID NO: 1206-1213) (protein)
chain: MGSRLDKSKVINSALELLNEVGIEGLTTRKLAQKLGVEQPTLYWHVKNKRALLDALAIEMMDRHQTHFCPLEGESWQDFLRNTAKSYRCALLSHRDGAKVILGTRWTEKQYETRENVLAFLCQQGFSLENALYAWAAVGPFTLGCVLRDQERQVAKEERETPTTDSMPPLLRQALELMDHQGAEPAFLFGLELIICGLEKQLKCESGS
modifications: rSuR L1-39
relative β-galactosidase activity, inducer atc [15]: 4.92 | relative β-galactosidase activity, inducer Ci [16]: 0.49 | relative β-galactosidase activity, inducer Cs [17]: 0.89 | relative β-galactosidase activity, inducer Es [18]: 0.60 | relative β-galactosidase activity, inducer Ms [19]: 0.75 | relative β-galactosidase activity, inducer Ns [20]: 3.03 | relative β-galactosidase activity, inducer Blank [21]: 3.65 | relative β-galactosidase activity, inducer Rs [22]: 4.72 | relative β-galactosidase activity, inducer Sm [23]: 0.91 | relative β-galactosidase activity, inducer Ts [24]: 1.42 | relative β-galactosidase activity, inducer Tb [25]: 0.97

B5: L1-36: library L1 reverse repressor hit (SEQ ID NO: 1206-1213) (protein)
chain: MGSRLDKSKVINSALELLNEVGIEGLTTRKLAQKLGVEQPTLYWHVKNKRALLDALAIEMADRHHTHFCPLEGESWQDFLRNAAKSMRCALLSHRDGAKVRLGTAWTEKQYETHENVLAFLCQQGFSLENALYALKAVSGFTLGCVLKDQEMQVAKEERETPTTDSMPPLLRQATELVDHQGAEPAFLFGLELIICGLEKQLKCESGS
modifications: rSuR L1-36
relative β-galactosidase activity, inducer atc [15]: 1.70 | relative β-galactosidase activity, inducer Ci [16]: 0.21 | relative β-galactosidase activity, inducer Cs [17]: 0.24 | relative β-galactosidase activity, inducer Es [18]: 0.20 | relative β-galactosidase activity, inducer Ms [19]: 0.38 | relative β-galactosidase activity, inducer Ns [20]: 1.81 | relative β-galactosidase activity, inducer Blank [21]: 1.52 | relative β-galactosidase activity, inducer Rs [22]: 1.84 | relative β-galactosidase activity, inducer Sm [23]: 0.50 | relative β-galactosidase activity, inducer Ts [24]: 0.48 | relative β-galactosidase activity, inducer Tb [25]: 0.57

B6: L1-41: library L1 reverse repressor hit (SEQ ID NO: 1206-1213) (protein)
chain: MGSRLDKSKVINSALELLNEVGIEGLTTRKLAQKLGVEQPTLYWHVKNKRALLDALAIEMLDRNQTHFCPLEGESWQDFLRNNAKSWRCALLSHRDGAKVMLGTRNTEKQYETAENGLAFLCQQGFSLENALYACRAVWTFTLGCVLDDQETQVAKEERETPTSDSMPPLLRQAMELKDHQGAEPAFLFGLELIICGLEKQLKCESGS
modifications: rSuR L1-41
relative β-galactosidase activity, inducer atc [15]: 4.21 | relative β-galactosidase activity, inducer Ci [16]: 0.39 | relative β-galactosidase activity, inducer Cs [17]: 0.61 | relative β-galactosidase activity, inducer Es [18]: 0.18 | relative β-galactosidase activity, inducer Ms [19]: 0.56 | relative β-galactosidase activity, inducer Ns [20]: 2.75 | relative β-galactosidase activity, inducer Blank [21]: 4.05 | relative β-galactosidase activity, inducer Rs [22]: 4.05 | relative β-galactosidase activity, inducer Sm [23]: 0.67 | relative β-galactosidase activity, inducer Ts [24]: 1.46 | relative β-galactosidase activity, inducer Tb [25]: 1.41

B7: L1-38: library L1 hit, sulfonylurea-responsive TetR(B) variant (protein)
chain: MGSRLDKSKVINSALELLNEVGIEGLTTRKLAQKLGVEQPTLYWHVKNKRALLDALAIEMADRHHTHFCPLEGESWQDFLRNNAKSMRCALLSHRDGAKVWLGTAWTEKQYETTENMLAFLCQQGFSLENALYAWRAVTMFTLGCVLRDQEWQVAKEERETPTTDSMPPLLRQALELGDHQGAEPAFLFGLELIICGLEKQLKCESGS
modifications: Sulfonylurea responsive repressor L1-38
relative β-galactosidase activity, inducer atc [1]: 6.4 | relative β-galactosidase activity, inducer Ci [2]: 15.3 | relative β-galactosidase activity, inducer Cs [3]: 14.0 | relative β-galactosidase activity, inducer Es [4]: 14.8 | relative β-galactosidase activity, inducer Ms [5]: 14.7 | relative β-galactosidase activity, inducer Ns [6]: 8.7 | relative β-galactosidase activity, inducer None (Table 4, 48 hrs at 30° C.): 9.5 | relative β-galactosidase activity, inducer Rs [7]: 9.5 | relative β-galactosidase activity, inducer Sm [14]: 18.3 | relative β-galactosidase activity, inducer Ts [8]: 16.7 | relative β-galactosidase activity, inducer Tb [9]: 15.8
